{
  "source": "patent US20180244760A1",
  "about": "(UNIVERSITY OF MARYLAND BALTIMORE, published 2018)",
  "key": {"[1]": {"biological_target": "T1, Clostridium difficile toxin B (TcdB) (Clostridium difficile, UniProt P18177 2-2366)", "T1 sequence (P18177 2-2366 limits assumed)": "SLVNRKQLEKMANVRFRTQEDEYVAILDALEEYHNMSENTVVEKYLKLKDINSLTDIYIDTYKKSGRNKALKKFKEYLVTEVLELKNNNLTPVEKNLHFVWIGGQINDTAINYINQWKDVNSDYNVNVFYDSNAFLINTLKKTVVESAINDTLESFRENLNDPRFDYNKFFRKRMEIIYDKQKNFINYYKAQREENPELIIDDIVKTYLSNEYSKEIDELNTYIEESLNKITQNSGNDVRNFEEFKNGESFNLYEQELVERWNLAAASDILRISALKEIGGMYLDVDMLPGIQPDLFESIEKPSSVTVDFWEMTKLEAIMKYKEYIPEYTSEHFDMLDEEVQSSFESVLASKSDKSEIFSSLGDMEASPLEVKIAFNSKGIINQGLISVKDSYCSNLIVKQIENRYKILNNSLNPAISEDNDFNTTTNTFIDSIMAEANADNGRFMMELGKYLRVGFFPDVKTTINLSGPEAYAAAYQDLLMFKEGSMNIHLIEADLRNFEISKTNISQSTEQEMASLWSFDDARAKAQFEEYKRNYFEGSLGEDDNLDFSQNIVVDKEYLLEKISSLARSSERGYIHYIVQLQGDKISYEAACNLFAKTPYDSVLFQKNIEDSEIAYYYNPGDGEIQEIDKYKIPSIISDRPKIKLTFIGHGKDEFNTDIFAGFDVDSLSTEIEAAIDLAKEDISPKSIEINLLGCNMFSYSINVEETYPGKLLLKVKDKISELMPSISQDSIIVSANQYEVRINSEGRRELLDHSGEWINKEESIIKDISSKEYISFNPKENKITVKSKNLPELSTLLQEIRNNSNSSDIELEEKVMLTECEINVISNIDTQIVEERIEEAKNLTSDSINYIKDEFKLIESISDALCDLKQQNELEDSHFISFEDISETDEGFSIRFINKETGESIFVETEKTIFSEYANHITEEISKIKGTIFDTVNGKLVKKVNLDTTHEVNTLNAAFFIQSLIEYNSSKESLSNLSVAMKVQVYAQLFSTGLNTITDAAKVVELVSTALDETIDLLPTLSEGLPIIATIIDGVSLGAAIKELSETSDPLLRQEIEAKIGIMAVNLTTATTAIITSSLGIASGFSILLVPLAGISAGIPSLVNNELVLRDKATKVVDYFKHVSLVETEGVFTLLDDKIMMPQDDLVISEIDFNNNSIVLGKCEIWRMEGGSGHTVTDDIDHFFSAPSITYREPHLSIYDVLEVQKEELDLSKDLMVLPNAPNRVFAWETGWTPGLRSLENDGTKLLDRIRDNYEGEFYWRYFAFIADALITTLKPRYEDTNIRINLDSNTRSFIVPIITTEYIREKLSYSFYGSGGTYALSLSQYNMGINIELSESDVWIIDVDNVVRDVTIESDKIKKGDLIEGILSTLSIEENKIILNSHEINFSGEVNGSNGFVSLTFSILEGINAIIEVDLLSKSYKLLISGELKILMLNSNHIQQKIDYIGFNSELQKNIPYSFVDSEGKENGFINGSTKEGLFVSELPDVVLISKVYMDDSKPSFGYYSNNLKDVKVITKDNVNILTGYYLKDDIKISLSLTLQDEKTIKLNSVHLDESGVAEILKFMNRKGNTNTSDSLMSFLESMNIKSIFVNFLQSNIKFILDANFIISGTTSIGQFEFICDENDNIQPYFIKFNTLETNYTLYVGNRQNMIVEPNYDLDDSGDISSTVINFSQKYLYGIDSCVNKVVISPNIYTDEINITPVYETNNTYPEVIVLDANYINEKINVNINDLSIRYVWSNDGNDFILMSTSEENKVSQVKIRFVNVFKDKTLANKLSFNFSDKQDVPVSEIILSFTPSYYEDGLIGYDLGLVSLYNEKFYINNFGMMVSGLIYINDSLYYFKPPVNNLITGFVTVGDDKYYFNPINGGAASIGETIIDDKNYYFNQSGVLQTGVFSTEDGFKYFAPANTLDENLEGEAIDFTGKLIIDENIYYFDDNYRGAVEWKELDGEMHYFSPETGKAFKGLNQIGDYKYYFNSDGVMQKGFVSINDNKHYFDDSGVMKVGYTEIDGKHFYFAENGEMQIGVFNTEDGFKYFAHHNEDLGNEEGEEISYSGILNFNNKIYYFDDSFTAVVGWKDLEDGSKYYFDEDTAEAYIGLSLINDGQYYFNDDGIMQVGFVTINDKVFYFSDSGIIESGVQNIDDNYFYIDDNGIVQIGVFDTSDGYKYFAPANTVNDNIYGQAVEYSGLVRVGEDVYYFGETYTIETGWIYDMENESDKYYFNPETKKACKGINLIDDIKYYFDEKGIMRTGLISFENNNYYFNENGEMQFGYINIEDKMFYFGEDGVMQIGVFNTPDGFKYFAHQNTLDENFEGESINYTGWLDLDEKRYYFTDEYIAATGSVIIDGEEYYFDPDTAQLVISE", "assay": "cell-based or functional assay"}, "[2]": {"biological_target": "T1, Clostridium difficile toxin B (TcdB)", "assay": "sandwich ELISA: TcdB coated, Habab titrated, TcdA at 40 ng/ml detected"}, "[3]": {"biological_target": "T1, Clostridium difficile toxin B (TcdB)", "assay": "ELISA, plate coated with 1 ug/ml TcdB"}},
  "data": [
    {"binder": "ABAB-IgG1 tetra-specific, octameric binding agent (bispecific antibody, also called IgG-ABAB; IgG-ABBA) heavy: not shown light: QLQLVETGGGLVQPGGSLRLSCAASGFTFSDYVMTWVRQAPGKGPEWIATINTDGSTMRDDSTKGRFTISRDNAKNTLYLQMTSLKPEDTALYYCARGRVISASAIRGAVRGPGTQVTVSSGGGGSGGGGSGGGGSQVQLVESGGGLVQTGGSLRLSCASSGSIAGFETVTWSRQAPGKSLQWVASMTKTNNEIYSDSVKGRFIISRDNAKNTVYLQMNSLKPEDTGVYFCKGPELRGQGIQVTVSSRTVAAPSVFIFPPSDEQLKSGTASVVCLLNNFYPREAKVQWKVDNALQSGNSQESVTEQDSKDSTYSLSSTLTLSKADYEKHKVYACEVTHQGLSSPVTKSFNRGEC", "values": [
      {"measurement": "neutralization of the TcdB cytopathic effect on Vero cells, fold potency over the Merck antibody", "setting": "[1]", "result": "≥ 1000", "unit": "fold"},
      {"measurement": "EC50 (read off the curve)", "setting": "[2]", "result": "~0.05", "unit": "mg/L"}
    ]},
    {"binder": "VHH peptide monomer E3 (VHH, also called VHH E3) VHH: QVQLVESGGGLVQTGGSLRLSCASSGSIAGFETVTWSRQAPGKSLQWVASMTKTNNEIYSDSVKGRFIISRDNAKNTVYLQMNSLKPEDTGVYFCKGPELRGQGIQVTVSS", "values": [
      {"measurement": "EC50 (read off the curve)", "setting": "[3]", "result": "~0.01", "unit": "mg/L"}
    ]}
  ]
}
